Reference: patent publication US7163686

Tests used:
[1] = biological target: biotinylated-purified IgG Fc fragments (Jackson Labs); assay: inhibition ELISA: protein in solution incubated with biotinylated IgG Fc fragments, wells coated with SpA, streptavidin-AP
[2] = biological target: representative VHIII-encoded IgG2a Moab (moderate affinity clan VHIII, murine 7183-encoded antibody); assay: inhibition ELISA: SpA form in solution preincubated with the murine 7183-encoded IgG2a, then wells coated with tetmDomD′; human Fc fragments added

Substance | IC50 [1] | IC50 [2]
SpA domain D (wildtype), monomer (from UniProt P38507 93-153) | 200 µM | 10000 µM
Staphylococcal protein A (SpA), native, recombinant rSpA (Repligen) (from UniProt P38507 37-437) | 0.4 µM | 2 µM
TetmDomD′ (four-domain concatamer of mutant SpA domain D′, L17D/I31A) (from UniProt P38507 93-153; P38507 93-153; P38507 93-153; P38507 93-153) | – | 5000 µM
